Assays:
[1] = molecular target: HIV-1 Env of pseudovirus isolate MGRM-G-017 (HIV-1); test: cell-based or functional assay
[2] = molecular target: HIV-1 Env of pseudovirus isolate MGRM-G-009 (HIV-1); test: cell-based or functional assay
[3] = molecular target: HIV-1 Env of pseudovirus isolate MGRM-G-014 (HIV-1); test: cell-based or functional assay
[4] = molecular target: HIV-1 Env of pseudovirus isolate MGRM-G-006 (HIV-1); test: cell-based or functional assay
[5] = molecular target: HIV-1 Env of pseudovirus isolate MGRM-G-011 (HIV-1); test: cell-based or functional assay
[6] = molecular target: HIV-1 Env of pseudovirus isolate MGRM-G-019 (HIV-1); test: cell-based or functional assay
[7] = molecular target: HIV-1 Env of pseudovirus isolate MGRM-G-004 (HIV-1); test: cell-based or functional assay
[8] = molecular target: envelope of aMLV pseudovirus (negative control); test: cell-based or functional assay
[9] = molecular target: HIV-1 Env of pseudovirus isolate MGRM-G-027 (HIV-1); test: cell-based or functional assay
[10] = molecular target: HIV-1 Env of pseudovirus isolate MGRM-G-013 (HIV-1); test: cell-based or functional assay
[11] = molecular target: HIV-1 Env of pseudovirus isolate MGRM-G-016 (HIV-1); test: cell-based or functional assay
[12] = molecular target: HIV-1 Env of pseudovirus isolate MGRM-G-001 (HIV-1); test: cell-based or functional assay
[13] = molecular target: HIV-1 Env of pseudovirus isolate MGRM-G-015 (HIV-1); test: cell-based or functional assay
[14] = molecular target: WT JR-FL gp120 (HIV-1); test: ELISA, antigen-coated wells

Sequence of 5345_I01 (PGT-137) (antibody) (VH): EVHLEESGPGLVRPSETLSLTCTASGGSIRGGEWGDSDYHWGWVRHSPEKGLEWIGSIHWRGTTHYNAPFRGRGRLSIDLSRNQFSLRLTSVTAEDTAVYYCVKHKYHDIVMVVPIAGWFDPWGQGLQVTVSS
Sequence of 5345_I01 (PGT-137) (antibody) (VL): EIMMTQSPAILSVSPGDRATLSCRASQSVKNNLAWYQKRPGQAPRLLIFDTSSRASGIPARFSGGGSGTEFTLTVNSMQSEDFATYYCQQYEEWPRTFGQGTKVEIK

Work on 5114_A19 (PGT-128) (antibody) yielded an IC50 (µg/mL), pseudovirus neutralization [1] of 0.319 µg/mL, an IC50 (µg/mL), pseudovirus neutralization [2] of over 50 µg/mL and an IC50 (µg/mL), pseudovirus neutralization [3] of 0.004 µg/mL. For the same substance, the IC50 (µg/mL), pseudovirus neutralization [4] was over 50 µg/mL, the IC50 (µg/mL), pseudovirus neutralization [5] was 8.21 µg/mL and the IC50 (µg/mL), pseudovirus neutralization [6] was 0.01 µg/mL. For the same substance, the IC50 (µg/mL), pseudovirus neutralization [7] was over 50 µg/mL, the IC50 (µg/mL), pseudovirus neutralization [8] was over 50 µg/mL and the IC50 (µg/mL), pseudovirus neutralization [9] was 0.313 µg/mL. For the same substance, the IC50 (µg/mL), pseudovirus neutralization [10] was 0.995 µg/mL, the IC50 (µg/mL), pseudovirus neutralization [11] was over 50 µg/mL and the IC50 (µg/mL), pseudovirus neutralization [12] was 0.019 µg/mL. It also gave an IC50 (µg/mL), pseudovirus neutralization [13] of over 50 µg/mL and an EC50 [14] of 0.1 mg/L.

5136_H01 (PGT-131) (antibody) gave an IC50 (µg/mL), pseudovirus neutralization [1] of over 50 µg/mL, an IC50 (µg/mL), pseudovirus neutralization [2] of over 50 µg/mL and an IC50 (µg/mL), pseudovirus neutralization [3] of 4.31 µg/mL. The IC50 (µg/mL), pseudovirus neutralization [4] was over 50 µg/mL, the IC50 (µg/mL), pseudovirus neutralization [5] was over 50 µg/mL and the IC50 (µg/mL), pseudovirus neutralization [6] was over 50 µg/mL. The IC50 (µg/mL), pseudovirus neutralization [7] was over 50 µg/mL, the IC50 (µg/mL), pseudovirus neutralization [8] was over 50 µg/mL and the IC50 (µg/mL), pseudovirus neutralization [9] was 2.9 µg/mL. The IC50 (µg/mL), pseudovirus neutralization [10] was over 50 µg/mL, the IC50 (µg/mL), pseudovirus neutralization [11] was over 50 µg/mL and the IC50 (µg/mL), pseudovirus neutralization [12] was 0.404 µg/mL. The IC50 (µg/mL), pseudovirus neutralization [13] was over 50 µg/mL and the EC50 [14] was 0.4 mg/L.

5345_I01 (PGT-137) (antibody) showed an IC50 (µg/mL), pseudovirus neutralization [1] of 34.9 µg/mL, an IC50 (µg/mL), pseudovirus neutralization [2] of over 50 µg/mL and an IC50 (µg/mL), pseudovirus neutralization [3] of over 50 µg/mL. It also gave an IC50 (µg/mL), pseudovirus neutralization [4] of over 50 µg/mL, an IC50 (µg/mL), pseudovirus neutralization [5] of over 50 µg/mL and an IC50 (µg/mL), pseudovirus neutralization [6] of 0.126 µg/mL. It also gave an IC50 (µg/mL), pseudovirus neutralization [7] of over 50 µg/mL, an IC50 (µg/mL), pseudovirus neutralization [8] of over 50 µg/mL and an IC50 (µg/mL), pseudovirus neutralization [9] of 0.228 µg/mL. The IC50 (µg/mL), pseudovirus neutralization [10] was over 50 µg/mL, the IC50 (µg/mL), pseudovirus neutralization [11] was over 50 µg/mL and the IC50 (µg/mL), pseudovirus neutralization [12] was 41.7 µg/mL. The IC50 (µg/mL), pseudovirus neutralization [13] was over 50 µg/mL and the EC50 [14] was 0.1 mg/L.
